The target in data set [1] is T4SS_(3-10) complex of plasmid R388 (TrwM/VirB3 to TrwE/VirB10) (conjugative plasmid R388). As to the kind of experiment: cysteine labelling with Alexa Fluor 633 C5 maleimide and fluorescence of SDS-PAGE bands; co-purified T4SS3-10+D4 complex denatured in 1% SDS, reduced with TCEP, labelled; band of TrwE (14 copies) as reference; three independent preparations.
Data set [2] concerns the molecule itself. Description: negative stain electron microscopy structure; co-purified T4SS3-10+D4 complex from the ΔtrwD/virB11 construct, cross-linked with 0.1% glutaraldehyde on a 10-30% sucrose gradient (GraFix); 2% uranyl acetate; reconstruction of the inner membrane complex, C2 symmetry, 28 Å.

Regarding “TrwB/VirD4 coupling protein of plasmid R388, N-terminally His-tagged (from UniProt Q04230 1-507) (natural protein)”, the stoichiometry N (TrwB subunits per complex) in data set [1] came to 4.5.

B1: TrwB/VirD4 coupling protein of plasmid R388, N-terminally His-tagged (natural protein, conjugative plasmid R388, UniProt Q04230 1-507, looked up)
chain: MHPDDQRKVSAGIVIVLPLIFWITAVQKTEVLGSPKLLALWELMKLTPQKPILLLSALGGLAVGVLFVWLLNSVGQGEFGGAPFKRFLRGTRIVSGGKLKRMTREKAKQVTVAGVPMPRDAEPRHLLVNGATGTGKSVLLRELAYTGLLRGDRMVIVDPNGDMLSKFGRDKDIILNPYDQRTKGWSFFNEIRNDYDWQRYALSVVPRGKTDEAEEWASYGRLLLRETAKKLALIGTPSMRELFHWTTIATFDDLRGFLEGTLAESLFAGSNEASKALTSARFVLSDKLPEHVTMPDGDFSIRSWLEDPNGGNLFITWREDMGPALRPLISAWVDVVCTSILSLPEEPKRRLWLFIDELASLEKLASLADALTKGRKAGLRVVAGLQSTSQLDDVYGVKEAQTLRASFRSLVVLGGSRTDPKTNEDMSLSLGEHEVERDRYSKNTGKHHSTGRALERVRERVVMPAEIANLPDLTAYVGFAGNRPIAKVPLEIKQFANRQPAFVEGTI
notes: TrwB (VirD4 homologue), coupling protein encoded by the conjugative plasmid R388; whole gene cloned after trwD/virB11; theoretical molecular weight with 10 additional histidines 57 kDa; Inner membrane protein; also called His trwB_(/virD4); source: detergent-solubilised membranes; co-purified (Strep column, HisTrap); not shown: His10, N-terminal, kept
On to B1, for which, in data set [2], the “stoichiometry N” value is 2 TrwB molecules in each region of density.
